Assay results as given in patent US20040058369A1.

Molecular target: αRXR co-transfected into HEK293 cells
Experiment: cell-based or functional assay

Substance: Heliothis virescens ecdysone receptor (HEcR) as expressed from effector plasmid pcDNA3H3KHEcR
- induction of reporter activity in HEK293 cells co-transfected with αRXR, effector and reporter, compared to the untreated cells: 9 fold
- reporter activity with αRXR co-transfected, compared to cells transfected with effector and reporter alone: 4 fold
